System: Escherichia coli TOP10
Assay: shrunken log2 fold change of peptide-encoding DNA abundance (4.5 h post-induction vs induction); higher = less antimicrobial activity (less host growth inhibition)
Conditions: time post-induction: 4.5 h; library: site-saturation at positions 5, 18, 19, 20
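Also: peptides expressed intracellularly from a pBAD plasmid library in pooled LB shake-flask culture, induced with 0.3% L-arabinose, DNA abundance read by NGS, three biological replicates, DESeq2 with apeglm shrinkage.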

Row | Sequence | shrunken log2 fold change
1 | RRIRERPPRLPRPRPRPTCMPRP | -0.0554
2 | RRIRFRPPRLPRPRPRPMICPRP | -0.303
3 | RRIRRRPPRLPRPRPRPSDHPRP | -0.0811
4 | RRIRERPPRLPRPRPRPLVWPRP | 0.339
5 | RRIRLRPPRLPRPRPRPHGYPRP | -0.528
6 | RRIRSRPPRLPRPRPRPMSPPRP | -0.125
7 | RRIRSRPPRLPRPRPRPYWQPRP | -0.551
8 | RRIRGRPPRLPRPRPRPQMNPRP | 0.355
9 | RRIRLRPPRLPRPRPRPCPYPRP | 0.0232
10 | RRIRNRPPRLPRPRPRPGLQPRP | -0.113
11 | RRIRFRPPRLPRPRPRPFLVPRP | -0.426
12 | RRIRMRPPRLPRPRPRPGHEPRP | 0.086
13 | RRIRCRPPRLPRPRPRPGWVPRP | 0.513
14 | RRIRWRPPRLPRPRPRPGFMPRP | 0.212
15 | RRIRWRPPRLPRPRPRPLHFPRP | 0.136
16 | RRIRYRPPRLPRPRPRPKFWPRP | 0.449
17 | RRIRYRPPRLPRPRPRPEWLPRP | 0.00963
18 | RRIRDRPPRLPRPRPRPGQIPRP | 0.0221
19 | RRIRIRPPRLPRPRPRPSVVPRP | 0.055
20 | RRIRYRPPRLPRPRPRPVQSPRP | -0.017
21 | RRIRGRPPRLPRPRPRPAHAPRP | 1.06
22 | RRIRARPPRLPRPRPRPNPKPRP | 0.372
23 | RRIRARPPRLPRPRPRPQLIPRP | 0.184
24 | RRIRMRPPRLPRPRPRPEWKPRP | 0.0511
25 | RRIRMRPPRLPRPRPRPYDWPRP | -0.133

Row | Sequence | shrunken log2 fold change
26 | RRIRTRPPRLPRPRPRPMCWPRP | -0.0846
27 | RRIRRRPPRLPRPRPRPFPVPRP | 0.271
28 | RRIRFRPPRLPRPRPRPRTFPRP | -0.179
29 | RRIRARPPRLPRPRPRPEEPPRP | 1.24
30 | RRIRARPPRLPRPRPRPMMEPRP | 0.0919
31 | RRIRFRPPRLPRPRPRPQYFPRP | -0.416
32 | RRIRSRPPRLPRPRPRPISNPRP | -0.338
33 | RRIRWRPPRLPRPRPRPVEDPRP | 0.00386
34 | RRIRFRPPRLPRPRPRPIIRPRP | -0.014
35 | RRIRQRPPRLPRPRPRPAIGPRP | 0.216
36 | RRIRRRPPRLPRPRPRPMMRPRP | 0.73
37 | RRIRLRPPRLPRPRPRPVLWPRP | 0.389
38 | RRIRKRPPRLPRPRPRPGAVPRP | 0.749
39 | RRIRCRPPRLPRPRPRPDRNPRP | -0.397
40 | RRIRQRPPRLPRPRPRPSYEPRP | 0.0509
41 | RRIRYRPPRLPRPRPRPWRMPRP | -0.369
42 | RRIRFRPPRLPRPRPRPANAPRP | -0.0885
43 | RRIRERPPRLPRPRPRPHICPRP | 0.0721
44 | RRIRKRPPRLPRPRPRPATNPRP | 0.712
45 | RRIRFRPPRLPRPRPRPILQPRP | -0.0746
46 | RRIRARPPRLPRPRPRPFQYPRP | 0.0189
47 | RRIRVRPPRLPRPRPRPESLPRP | -0.175
48 | RRIRLRPPRLPRPRPRPVCVPRP | -0.115
49 | RRIRQRPPRLPRPRPRPCYIPRP | -0.191
50 | RRIRDRPPRLPRPRPRPDHNPRP | 0.0311

Row | Sequence | shrunken log2 fold change
51 | RRIRMRPPRLPRPRPRPRWMPRP | 0.315
52 | RRIRPRPPRLPRPRPRPIDLPRP | -0.0858
53 | RRIRFRPPRLPRPRPRPYMDPRP | -0.0184
54 | RRIRIRPPRLPRPRPRPRSTPRP | -0.391
55 | RRIRGRPPRLPRPRPRPRMNPRP | 0.572
56 | RRIRCRPPRLPRPRPRPKPWPRP | 0.275
57 | RRIRLRPPRLPRPRPRPRCRPRP | 0.434
58 | RRIRSRPPRLPRPRPRPNWFPRP | -0.0702
59 | RRIRPRPPRLPRPRPRPRWKPRP | 0.176
60 | RRIRQRPPRLPRPRPRPWRQPRP | 0.029
61 | RRIRTRPPRLPRPRPRPSHVPRP | 2.39
62 | RRIRERPPRLPRPRPRPDQLPRP | -0.248
63 | RRIRGRPPRLPRPRPRPENLPRP | -0.0405
64 | RRIRDRPPRLPRPRPRPKVHPRP | -0.216
65 | RRIRTRPPRLPRPRPRPEDRPRP | 0.0062
66 | RRIRCRPPRLPRPRPRPICYPRP | -0.358
67 | RRIRSRPPRLPRPRPRPCNAPRP | -0.0263
68 | RRIRDRPPRLPRPRPRPQPNPRP | 0.072
69 | RRIRARPPRLPRPRPRPHGVPRP | 0.0905
70 | RRIRWRPPRLPRPRPRPWVIPRP | 0.00419
71 | RRIRVRPPRLPRPRPRPHPTPRP | 0.23
72 | RRIRSRPPRLPRPRPRPRVKPRP | -0.224
73 | RRIRTRPPRLPRPRPRPCKIPRP | -0.03
74 | RRIRHRPPRLPRPRPRPQSHPRP | -0.167
75 | RRIRRRPPRLPRPRPRPMAKPRP | 0.315

Row | Sequence | shrunken log2 fold change
76 | RRIRTRPPRLPRPRPRPDCHPRP | -0.0374
77 | RRIRKRPPRLPRPRPRPPGGPRP | 0.811
78 | RRIRYRPPRLPRPRPRPYTGPRP | -0.0103
79 | RRIRERPPRLPRPRPRPVGHPRP | -0.000999
80 | RRIRKRPPRLPRPRPRPSVQPRP | 0.0869
81 | RRIRDRPPRLPRPRPRPPSCPRP | 0.379
82 | RRIRTRPPRLPRPRPRPGLGPRP | 0.466
83 | RRIRARPPRLPRPRPRPVWAPRP | 0.305
84 | RRIRNRPPRLPRPRPRPIVWPRP | 0.0313
85 | RRIRWRPPRLPRPRPRPPARPRP | 0.726
86 | RRIRYRPPRLPRPRPRPIFPPRP | -0.23
87 | RRIRNRPPRLPRPRPRPNTRPRP | -0.115
88 | RRIRWRPPRLPRPRPRPTFHPRP | 0.00721
89 | RRIRKRPPRLPRPRPRPVELPRP | 0.111
90 | RRIRRRPPRLPRPRPRPKDRPRP | 0.09
91 | RRIRKRPPRLPRPRPRPCHWPRP | 0.139
92 | RRIRFRPPRLPRPRPRPMVIPRP | 0.023
93 | RRIRNRPPRLPRPRPRPTEQPRP | -0.209
94 | RRIRRRPPRLPRPRPRPIMKPRP | -0.0396
95 | RRIRMRPPRLPRPRPRPQIQPRP | -0.0708
96 | RRIRVRPPRLPRPRPRPYMDPRP | -0.0331
97 | RRIRTRPPRLPRPRPRPSCSPRP | -0.16
98 | RRIRTRPPRLPRPRPRPNNMPRP | -0.346
99 | RRIRDRPPRLPRPRPRPPAKPRP | 0.443
100 | RRIRWRPPRLPRPRPRPEMDPRP | 0.7

Row | Sequence | shrunken log2 fold change
101 | RRIRTRPPRLPRPRPRPRLRPRP | 0.403
102 | RRIRTRPPRLPRPRPRPSREPRP | 0.427
103 | RRIRWRPPRLPRPRPRPHNEPRP | -0.476
104 | RRIRLRPPRLPRPRPRPWQRPRP | -0.161
105 | RRIRRRPPRLPRPRPRPQPVPRP | 0.299
106 | RRIRRRPPRLPRPRPRPWATPRP | 0.0893
107 | RRIRLRPPRLPRPRPRPRFRPRP | 0.117
108 | RRIRGRPPRLPRPRPRPQILPRP | -0.0843
109 | RRIRMRPPRLPRPRPRPFSAPRP | 0.138
110 | RRIRDRPPRLPRPRPRPDGGPRP | -0.00182
111 | RRIRERPPRLPRPRPRPSQLPRP | -0.127
112 | RRIRIRPPRLPRPRPRPNYVPRP | -0.115
113 | RRIRTRPPRLPRPRPRPFSTPRP | -0.0812
114 | RRIRKRPPRLPRPRPRPDSAPRP | 0.115
115 | RRIRRRPPRLPRPRPRPKESPRP | 0.023
116 | RRIRLRPPRLPRPRPRPCFGPRP | -0.0493
117 | RRIRTRPPRLPRPRPRPTAEPRP | 0.458
118 | RRIRMRPPRLPRPRPRPQCFPRP | 0.275
119 | RRIRQRPPRLPRPRPRPQYDPRP | -0.081
120 | RRIRQRPPRLPRPRPRPINWPRP | -0.0302
121 | RRIRPRPPRLPRPRPRPQQWPRP | 0.182
122 | RRIRTRPPRLPRPRPRPCFKPRP | -0.362
123 | RRIRIRPPRLPRPRPRPSFDPRP | -0.442
124 | RRIRARPPRLPRPRPRPDKAPRP | 0.121
125 | RRIRQRPPRLPRPRPRPDWHPRP | -0.038

Reference: the supplement of paper PMC9112550, “Optimization of the antimicrobial peptide Bac7 by deep mutational scanning” (BMC Biology, 2022)
